Source: patent US20200140562A1 (Innovent, published 2020)

T1: human OX40 on cells (CHO-hOX40, 293HEK-hOX40, Jurkat-hOX40, activated primary CD4+ T cells) (human, UniProt P43489 29-277)
T1 construct: whole, on cells; The cell type is told in each assay; also called CHO-OX40
T1 sequence (looked up): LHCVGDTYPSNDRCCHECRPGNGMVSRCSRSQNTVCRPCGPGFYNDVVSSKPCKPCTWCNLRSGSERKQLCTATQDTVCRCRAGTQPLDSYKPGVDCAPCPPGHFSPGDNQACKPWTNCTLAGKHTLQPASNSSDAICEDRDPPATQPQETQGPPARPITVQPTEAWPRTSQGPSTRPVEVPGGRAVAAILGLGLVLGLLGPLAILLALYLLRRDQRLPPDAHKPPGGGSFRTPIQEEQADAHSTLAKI

T2: mouse OX40Fc (Acro Biosystems) (mouse, UniProt P47741 20-211, limits assumed)
T2 construct: Bought; not shown: Fc
T2 sequence (looked up): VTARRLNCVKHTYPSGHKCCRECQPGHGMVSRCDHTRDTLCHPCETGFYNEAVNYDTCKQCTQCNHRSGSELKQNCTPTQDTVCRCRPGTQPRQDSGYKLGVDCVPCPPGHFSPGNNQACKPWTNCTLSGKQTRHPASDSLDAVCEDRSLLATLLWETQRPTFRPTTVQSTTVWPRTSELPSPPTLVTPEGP


Assays:
[1] = molecular target: T1, human OX40 on cells (CHO-hOX40, …); assay: flow cytometry, CHO-hOX40, IgG2 made in 293HEK
Procedure: (§1) CHO-hOX40 cells (0.2×10⁶ cells) are incubated with the experimental antibody at 100 nM for 30 min in PBS 0.1% BSA on ice. Cells are then washed at least twice, and are incubated with a secondary antibody (PE-labelled, SouthernBiotech, at final concentration of 5 μg/ml) in PBS 0.1% BSA for 30 min on ice (protected from light). Cells are washed at least twice and analysed via flow cytometry. Flow cytometry is performed on a Canto II system (BD Biosciences) and MFIs are calculated accordingly.

[2] = molecular target: T1, human OX40 on cells (CHO-hOX40, …); assay: flow cytometry, CHO-hOX40, 200 nM
[3] = molecular target: T1, human OX40 on cells (CHO-hOX40, …); assay: flow cytometry, CHO-hOX40, 6.25 nM
Procedure: as §1

[4] = molecular target: T1, human OX40 on cells (CHO-hOX40, …); assay: flow cytometry, CHO-hOX40, 100 nM
[5] = molecular target: T1, human OX40 on cells (CHO-hOX40, …); assay: flow cytometry, CHO-hOX40, 0.1953125 nM
[6] = molecular target: T1, human OX40 on cells (CHO-hOX40, …); assay: flow cytometry, CHO-hOX40, 0.048828125 nM
Procedure: as §1

[7] = molecular target: T1, human OX40 on cells (CHO-hOX40, …); assay: flow cytometry, CHO-hOX40, 50 nM
[8] = molecular target: T1, human OX40 on cells (CHO-hOX40, …); assay: flow cytometry, CHO-hOX40, 0.024414063 nM
Procedure: as §1

[9] = molecular target: T1, human OX40 on cells (CHO-hOX40, …); assay: flow cytometry, CHO-hOX40, 3.125 nM
[10] = molecular target: T1, human OX40 on cells (CHO-hOX40, …); assay: flow cytometry, CHO-hOX40, 25 nM
[11] = molecular target: T1, human OX40 on cells (CHO-hOX40, …); assay: flow cytometry, CHO-hOX40, 0.390625 nM
Procedure: as §1

[12] = molecular target: T1, human OX40 on cells (CHO-hOX40, …); assay: flow cytometry, CHO-hOX40, 1.5625 nM
Procedure: as §1

[13] = molecular target: T1, human OX40 on cells (CHO-hOX40, …); assay: flow cytometry, CHO-hOX40, 0.09765625 nM
Procedure: as §1

[14] = molecular target: T1, human OX40 on cells (CHO-hOX40, …); assay: flow cytometry, CHO-hOX40, 12.5 nM
[15] = molecular target: T1, human OX40 on cells (CHO-hOX40, …); assay: flow cytometry, CHO-hOX40, 0.78125 nM
Procedure: as §1

[16] = molecular target: T1, human OX40 on cells (CHO-hOX40, …); assay: cell-based or functional assay
[17] = molecular target: T1, human OX40 on cells (CHO-hOX40, …); assay: flow cytometry, 293HEK-hOX40, 1.6 nM
Procedure: (§2) The binding of an antibody of the present invention to human OX40 may be measured in a flow cytometry assay. […] Cells are then washed at least twice, and are incubated with a secondary antibody (PE-labelled, SouthernBiotech, at final concentration of 5 μg/ml) in PBS 0.1% BSA for 30 min on ice (protected from light). Cells are washed at least twice and analysed via flow cytometry. Flow cytometry is performed on an Accuri C6 system (BD Biosciences) and MFIs are calculated accordingly.

[18] = molecular target: T1, human OX40 on cells (CHO-hOX40, …); assay: cell-based or functional assay; remark: listed apart in the source
[19] = molecular target: T1, human OX40 on cells (CHO-hOX40, …); assay: flow cytometry, activated CD4+ T cells, donor 2, 100 nM
Procedure: (§3) Primary CD4+ T cells from healthy donors are activated with anti-CD3/CD28 DynaBeads(Invitrogen) for 48 hours and 0.2×10⁶ cells are incubated with the experimental antibody at 100 nM for 30 min in PBS 0.1% BSA on ice. Cells are then washed at least twice, and are incubated with a secondary antibody (PE-labelled, SouthernBiotech, at final concentration of 5 μg/ml) in PBS 0.1% BSA for 30 min on ice (protected from light). Cells are washed at least twice and analysed via flow cytometry. Flow cytometry is performed on an Accuri C6 system (BD Biosciences) and MFIs are calculated accordingly.

[20] = molecular target: T1, human OX40 on cells (CHO-hOX40, …); assay: flow cytometry, CHO-hOX40, 100 nM blocker, competitor OX40L-hFc-fluorescein
Procedure: Cells are washed 3×. Flow cytometry is performed on an Accuri C6 system (BD Biosciences) and MFIs are calculated on the C6 software.

[21] = molecular target: T2, mouse OX40Fc (Acro Biosystems); assay: BLI, IgG1 on tip, mouse OX40-Fc in solution
[22] = molecular target: T1, human OX40 on cells (CHO-hOX40, …); assay: flow cytometry, 293HEK-hOX40, 40 nM
Procedure: as §2

[23] = molecular target: T1, human OX40 on cells (CHO-hOX40, …); assay: flow cytometry, CHO-hOX40, 100 nM; remark: listed apart in the source
Procedure: as §1

[24] = molecular target: T1, human OX40 on cells (CHO-hOX40, …); assay: flow cytometry, activated CD4+ T cells, donor 1, 100 nM
Procedure: as §3

[25] = molecular target: T1, human OX40 on cells (CHO-hOX40, …); assay: flow cytometry, MFI on CHO-hOX40 over wild-type CHO
[26] = molecular target: T3, human OX40_Fc (R&D Systems) (human, UniProt P43489 29-216); assay: BLI, IgG1 on tip, hOX40-Fc 50 nM, avid
T3 construct: Bought
Procedure: (§4) Sensors with loaded antibodies were exposed to 100 nM OX40 antigens for 5 min, afterwards they were transferred to assay buffer for dissociation of 5 min for off-rate measurement. Kinetics was analysed using the 1:1 binding model.

[27] = molecular target: T4, cyno OX40_Fc (Acro Biosystems) (cyno); assay: BLI, IgG1 on tip, cyno OX40-Fc 100 nM, avid
T4 construct: Bought
Procedure: as §4

[28] = molecular target: T1, human OX40 on cells (CHO-hOX40, …); assay: flow cytometry, 293HEK-hOX40, 8 nM
Procedure: as §2

[29] = molecular target: T1, human OX40 on cells (CHO-hOX40, …); assay: flow cytometry, 293HEK-hOX40, 200 nM
Procedure: as §2

Row | Binder | EC50 [1] | MFI [2] | MFI [3] | MFI [4] | MFI [5] | MFI [6] | MFI [7] | MFI [8] | MFI [9] | MFI [10] | MFI [11] | MFI [12] | MFI [13] | MFI [14] | MFI [15] | MFI [17] | NFkB-Luc fold change in Jurkat stimulated by PHA+ anti-CD28 [18] | NFkB-Luc fold change in Jurkat stimulated by anti-CD3+ anti-CD28 [18] | MFI [19] | MFI of OX40L signal on CHO-OX40 cells [20] | also measured
1 | ADI-20118, IgG2 format (antibody, Made in 293HEK cells) heavy: QVQLVQSGAEVKKPGASVKVSCKASGYTFTSYAISWVRQAPGQGLEWMGWISAYNGNTNYAQKLQGRVTMTTDTSTSTAYMELRSLRSDDTAVYYCARSGGGSGPNWFDPWGQGTLVTVSSASTKGPSVFPLAPCSRSTSESTAALGCLVKDYFPEPVTVSWNSGALTSGVHTFPAVLQSSGLYSLSSVVTVPSSNFGTQTYTCNVDHKPSNTKVDKTVERKCCVECPPCPAPPVAGPSVFLFPPKPKDTLMISRTPEVTCVVVDVSHEDPEVQFNWYVDGVEVHNAKTKPREEQFNSTFRVVSVLTVVHQDWLNGKEYKCKVSNKGLPAPIEKTISKTKGQPREPQVYTLPPSREEMTKNQVSLTCLVKGFYPSDIAVEWESNGQPENNYKTTPPMLDSDGSFFLYSKLTVDKSRWQQGNVFSCSVMHEALHNHYTQKSLSLSPG light: not shown | 5.84 nM | 1.72e+06 MFI | 889000 MFI | 1.53e+06 MFI | 60400 MFI | 18400 MFI | 1.38e+06 MFI | 16500 MFI | 600000 MFI | 1.5e+06 MFI | 120000 MFI | 352000 MFI | 36800 MFI | 1.13e+06 MFI | 207000 MFI |  |  |  |  |  | 
2 | ADI-20112, IgG2 format (antibody, Made in 293HEK or CHO cells; also called ADI-20112-g2) heavy: QVQLVESGGGVVQPGRSLRLSCAASGFTFSSYGMHWVRQAPGKGLEWVAVISYDGSNKYYADSVKGRFTISRDNSKNTLYLQMNSLRAEDTAVYYCARGRPWYSETGTSAFDIWGQGTMVTVSSASTKGPSVFPLAPCSRSTSESTAALGCLVKDYFPEPVTVSWNSGALTSGVHTFPAVLQSSGLYSLSSVVTVPSSNFGTQTYTCNVDHKPSNTKVDKTVERKCCVECPPCPAPPVAGPSVFLFPPKPKDTLMISRTPEVTCVVVDVSHEDPEVQFNWYVDGVEVHNAKTKPREEQFNSTFRVVSVLTVVHQDWLNGKEYKCKVSNKGLPAPIEKTISKTKGQPREPQVYTLPPSREEMTKNQVSLTCLVKGFYPSDIAVEWESNGQPENNYKTTPPMLDSDGSFFLYSKLTVDKSRWQQGNVFSCSVMHEALHNHYTQKSLSLSPG light: not shown | 2.78 nM | 1.79e+06 MFI | 1.43e+06 MFI | 1.78e+06 MFI | 94200 MFI | 25700 MFI | 1.55e+06 MFI | 24600 MFI | 985000 MFI | 1.83e+06 MFI | 189000 MFI | 602000 MFI | 48500 MFI | 1.34e+06 MFI | 314000 MFI |  |  |  |  |  | EC50, NFkB-luciferase reporter in Jurkat-hOX40 mixed with Raji cells [16]: 0.246 nM
3 | ADI-20065, IgG1 format (antibody, V domains shown, Made in yeast) VH: QLQLQESGPGLVKPSETLSLTCTVSGGSISSSSYYWGWIRQPPGKGLEWIGSIYYSGSTYYNPSLKSRVTISVDTSKNQFSLKLSSVTAADTAVYYCARDPGYSASPNWFDPWGQGTLVTVSS VL: not shown |  |  |  |  |  |  |  |  |  |  |  |  |  |  |  | 808000 MFI | 2.11 fold over IgG4 control | 1.19 fold over IgG4 control | 209000 MFI | 33700 MFI | binding result [21]: no binding (tested: 100 nM); MFI [22]: 2.42e+06 MFI; CHO-OX40 binding intensity (MFI) [23]: 157000 MFI; MFI [24]: 153000 MFI; Fold difference [25]: 2240 fold; Kd [26]: 0.352 nM; Kd [27]: 5.77 nM; MFI [28]: 2.46e+06 MFI; MFI [29]: 3.03e+06 MFI
4 | ADI-20066, IgG1 format (antibody, V domains shown, Made in yeast) VH: QLQLQESGPGLVKPSETLSLTCTVSGGSISSSSYYWGWIRQPPGKGLEWIGSIYYSGSTYYNPSLKSRVTISVDTSKNQFSLKLSSVTAADTAVYYCARDPGYSASPNWFDPWGQGTLVTVSS VL: EIVLTQSPGTLSLSPGERATLSCRASQSVSSSFLAWYQQKPGQAPRLLIYGASSRATGIPDRFSGSGSGTDFTLTISRLEPEDFAVYYCQQYDVFPITFGGGTKVEIKR |  |  |  |  |  |  |  |  |  |  |  |  |  |  |  | 626000 MFI | 2.09 fold over IgG4 control | 1.96 fold over IgG4 control | 193000 MFI | 32800 MFI | binding result [21]: no binding (tested: 100 nM); MFI [22]: 2.39e+06 MFI; CHO-OX40 binding intensity (MFI) [23]: 161000 MFI; MFI [24]: 134000 MFI; Fold difference [25]: 2750 fold; Kd [26]: 0.91 nM; Kd [27]: 14.3 nM; MFI [28]: 2.82e+06 MFI; MFI [29]: 2.55e+06 MFI
